Reference: patent publication US20230140797A1 (published 2023)
Like-named read-outs stand apart in the source and are kept apart here. Blank lines part the entries; values can stand above or below the binder they belong to.

Columns and labels:
[1] = target: T1, human FcγRIIa type R extracellular domain with C-terminal His tag (human, UniProt P12318 34-217); assay: SPR
T1 sequence (looked up): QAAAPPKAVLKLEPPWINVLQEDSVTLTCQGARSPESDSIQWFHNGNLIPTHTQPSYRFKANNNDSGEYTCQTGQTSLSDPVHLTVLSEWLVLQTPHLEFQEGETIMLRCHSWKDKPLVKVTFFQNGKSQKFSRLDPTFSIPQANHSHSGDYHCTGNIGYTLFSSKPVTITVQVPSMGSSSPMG

[2] = target: T2, human FcγRIIb extracellular domain with C-terminal His tag (human, UniProt P31994 43-217); assay: ratio of SPR KDs
T2 sequence (looked up): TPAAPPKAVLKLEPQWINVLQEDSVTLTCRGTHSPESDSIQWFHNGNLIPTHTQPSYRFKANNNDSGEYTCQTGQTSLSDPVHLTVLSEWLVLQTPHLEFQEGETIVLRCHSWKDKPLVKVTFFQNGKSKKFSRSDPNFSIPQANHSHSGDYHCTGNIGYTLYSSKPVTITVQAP

[3] = target: T2, human FcγRIIb extracellular domain with …; assay: ratio of SPR KDs; remark: listed apart in the source
[4] = target: T3, human FcγRIIa type H (131His) extracellular domain with C-terminal His tag (human, UniProt P12318 34-217); assay: SPR
T3 sequence (looked up): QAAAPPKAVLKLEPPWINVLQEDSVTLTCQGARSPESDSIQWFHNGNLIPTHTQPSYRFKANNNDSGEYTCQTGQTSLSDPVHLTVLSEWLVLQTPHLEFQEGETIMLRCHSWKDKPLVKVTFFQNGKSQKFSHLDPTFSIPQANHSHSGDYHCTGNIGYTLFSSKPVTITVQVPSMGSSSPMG

[5] = target: human FcγRIIIa type V extracellular domain with C-terminal His tag (human, UniProt P08637 17-208); assay: SPR
Target sequence in this assay (P08637 17-208 F176V): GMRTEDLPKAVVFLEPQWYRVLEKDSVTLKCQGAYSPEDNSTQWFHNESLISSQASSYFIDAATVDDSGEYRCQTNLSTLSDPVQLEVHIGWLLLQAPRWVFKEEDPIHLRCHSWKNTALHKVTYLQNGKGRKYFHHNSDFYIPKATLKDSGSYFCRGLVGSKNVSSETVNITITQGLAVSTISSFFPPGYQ

[6] = target: human FcγRIIIa type V extracellular domain with C-terminal His tag (human, UniProt P08637 17-208); assay: SPR; remark: listed apart in the source
Target sequence in this assay (P08637 17-208 F176V): as above

[7] = target: T4, human FcγRIIa type H extracellular domain with C-terminal His tag (human, UniProt P12318 34-217); assay: SPR
T4 sequence (looked up): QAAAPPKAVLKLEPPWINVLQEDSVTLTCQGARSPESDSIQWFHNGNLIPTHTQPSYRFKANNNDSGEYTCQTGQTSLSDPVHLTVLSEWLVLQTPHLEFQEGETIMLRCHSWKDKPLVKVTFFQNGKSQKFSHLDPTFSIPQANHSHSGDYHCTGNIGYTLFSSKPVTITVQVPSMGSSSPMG

[8] = target: T3, human FcγRIIa type H (131His) …; assay: SPR; remark: listed apart in the source
[9] = target: T5, human FcγRIIa type R (131Arg) extracellular domain with C-terminal His tag (human, UniProt P12318 34-217); assay: SPR
T5 sequence (looked up): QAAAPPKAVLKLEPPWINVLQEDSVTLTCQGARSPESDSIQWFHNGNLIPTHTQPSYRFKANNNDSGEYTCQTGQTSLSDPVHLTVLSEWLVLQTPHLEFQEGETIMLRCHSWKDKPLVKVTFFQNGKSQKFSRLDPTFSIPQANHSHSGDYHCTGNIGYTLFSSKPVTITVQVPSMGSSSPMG

Kd [1]: 2500 nM
B1: IL6R-BP183/IL6R-L (antibody, human IgG1, kappa)
heavy: QVQLQESGPGLVKPSETLSLTCAVSGHSISHDHAWSWVRQPPGEGLEWIGFISYSGITNYNPSLQGRVTISRDNSKNTLYLQMNSLRAEDTAVYYCARSLARTTAMDYWGEGTLVTVSSASTKGPSVFPLAPSSKSTSGGTAALGCLVKDYFPEPVTVSWNSGALTSGVHTFPAVLQSSGLYSLSSVVTVPSSSLGTQTYICNVNHKPSNTKVDKKVEPKSCDKTHTCPPCPAPDYLGGDSVFLFPPKPKDTLMISRTPEVTCVVVDVSHEDGEVKFNWYVDGVEVHNAKTKPREEQYNSTYRVVSVLTVLHQDWLNGKEYKCKVSNAALPKPIEKTISKAKGQPREPQVYTLPPSRDELTKNQVSLTCLVKGFYPSDIAVEWESNGQPENNYKTTPPVLDSDGSFFLYSKLTVDKSRWQQGNVFSCSVMHEALHNHYTQESLSLSP
light: not shown

KD (IIaH)/KD (IIb) [2]: 670
KD (IIaR)/KD (IIb) [3]: 30.3
Kd [4]: 15000 nM
Kd [5]: 30000 nM
B2: IL6R-BP492/IL6R-L (antibody, human IgG1, kappa)
heavy: QVQLQESGPGLVKPSETLSLTCAVSGHSISHDHAWSWVRQPPGEGLEWIGFISYSGITNYNPSLQGRVTISRDNSKNTLYLQMNSLRAEDTAVYYCARSLARTTAMDYWGEGTLVTVSSASTKGPSVFPLAPSSKSTSGGTAALGCLVKDYFPEPVTVSWNSGALTSGVHTFPAVLQSSGLYSLSSVVTVPSSSLGTQTYICNVNHKPSNTKVDKKVEPKSCDKTHTCPPCPAPELLGGDSVFLFPPKPKDTLMISRTPEVTCVVIDVAEEDGEVKFNWYVDGVEVHNAKTKPREEQYNSTYRVVSVLTVLHQDWLNGKEYKCKVSNKALPAPIEKTISKAKGQPREPQVYTLPPSRDELTKNQVSLTCLVKGFYPSDIAVEWESNGQPENNYKTTPPVLDSDGSFFLYSKLTVDKSRWQQGNVFSCSVMHEALHNHYTQESLSLSP
light: not shown

Kd [1]: 950 nM
B3: IL6R-BP186/IL6R-L (antibody, human IgG1, kappa)
heavy: QVQLQESGPGLVKPSETLSLTCAVSGHSISHDHAWSWVRQPPGEGLEWIGFISYSGITNYNPSLQGRVTISRDNSKNTLYLQMNSLRAEDTAVYYCARSLARTTAMDYWGEGTLVTVSSASTKGPSVFPLAPSSKSTSGGTAALGCLVKDYFPEPVTVSWNSGALTSGVHTFPAVLQSSGLYSLSSVVTVPSSSLGTQTYICNVNHKPSNTKVDKKVEPKSCDKTHTCPPCPAPDYLGDDSVFLFPPKPKDTLMISRTPEVTCVVVDVSHEDGEVKFNWYVDGVEVHNAKTKPREEQDNSTYRVVSVLTVLHQDWLNGKEYKCKVSNAALPKPIEKTISKAKGQPREPQVYTLPPSRDELTKNQVSLTCLVKGFYPSDIAVEWESNGQPENNYKTTPPVLDSDGSFFLYSKLTVDKSRWQQGNVFSCSVMHEALHNHYTQESLSLSP
light: not shown

Kd [6]: 65000 nM
B4: IL6R-BP213/IL6R-L (antibody, human IgG1, kappa)
heavy: QVQLQESGPGLVKPSETLSLTCAVSGHSISHDHAWSWVRQPPGEGLEWIGFISYSGITNYNPSLQGRVTISRDNSKNTLYLQMNSLRAEDTAVYYCARSLARTTAMDYWGEGTLVTVSSASTKGPSVFPLAPSSKSTSGGTAALGCLVKDYFPEPVTVSWNSGALTSGVHTFPAVLQSSGLYSLSSVVTVPSSSLGTQTYICNVNHKPSNTKVDKKVEPKSCDKTHTCPPCPAPDLLGGDSVFLFPPKPKDTLMISRTPEVTCVVVDVSDEDGEVKFNWYVDGVEVHNAKTKPREEQYNSTYRVVSVLTVLHQDWLNGKEYKCKVSNKALPRPIEKTISKAKGQPREPQVYTLPPSRDELTKNQVSLTCLVKGFYPSDIAVEWESNGQPENNYKTTPPVLDSDGSFFLYSKLTVDKSRWQQGNVFSCSVMHEALHNHYTQESLSLSP
light: not shown

Kd [7]: 1000 nM
B5: IL6R-BP209/IL6R-L (antibody, human IgG1, kappa)
heavy: QVQLQESGPGLVKPSETLSLTCAVSGHSISHDHAWSWVRQPPGEGLEWIGFISYSGITNYNPSLQGRVTISRDNSKNTLYLQMNSLRAEDTAVYYCARSLARTTAMDYWGEGTLVTVSSASTKGPSVFPLAPSSKSTSGGTAALGCLVKDYFPEPVTVSWNSGALTSGVHTFPAVLQSSGLYSLSSVVTVPSSSLGTQTYICNVNHKPSNTKVDKKVEPKSCDKTHTCPPCPAPELLGDDSVFLFPPKPKDTLMISRTPEVTCVVVDVSDEDGEVKFNWYVDGVEVHNAKTKPREEQYNSTYRVVSVLTVLHQDWLNGKEYKCKVSNAALPRPIEKTISKAKGQPREPQVYTLPPSRDELTKNQVSLTCLVKGFYPSDIAVEWESNGQPENNYKTTPPVLDSDGSFFLYSKLTVDKSRWQQGNVFSCSVMHEALHNHYTQESLSLSP
light: not shown

Kd [6]: 68 nM
B6: IL6R-BP184/IL6R-L (antibody, human IgG1, kappa)
heavy: QVQLQESGPGLVKPSETLSLTCAVSGHSISHDHAWSWVRQPPGEGLEWIGFISYSGITNYNPSLQGRVTISRDNSKNTLYLQMNSLRAEDTAVYYCARSLARTTAMDYWGEGTLVTVSSASTKGPSVFPLAPSSKSTSGGTAALGCLVKDYFPEPVTVSWNSGALTSGVHTFPAVLQSSGLYSLSSVVTVPSSSLGTQTYICNVNHKPSNTKVDKKVEPKSCDKTHTCPPCPAPDLLGGDSVFLFPPKPKDTLMISRTPEVTCVVVDVSHEDGEVKFNWYVDGVEVHNAKTKPREEQYNSTYRVVSVLTVLHQDWLNGKEYKCKVSNKALPKPIEKTISKAKGQPREPQVYTLPPSRDELTKNQVSLTCLVKGFYPSDIAVEWESNGQPENNYKTTPPVLDSDGSFFLYSKLTVDKSRWQQGNVFSCSVMHEALHNHYTQESLSLSP
light: not shown

Kd [7]: 2100 nM
B7: IL6R-BP204/IL6R-L (antibody, human IgG1, kappa)
heavy: QVQLQESGPGLVKPSETLSLTCAVSGHSISHDHAWSWVRQPPGEGLEWIGFISYSGITNYNPSLQGRVTISRDNSKNTLYLQMNSLRAEDTAVYYCARSLARTTAMDYWGEGTLVTVSSASTKGPSVFPLAPSSKSTSGGTAALGCLVKDYFPEPVTVSWNSGALTSGVHTFPAVLQSSGLYSLSSVVTVPSSSLGTQTYICNVNHKPSNTKVDKKVEPKSCDKTHTCPPCPAPDLLGGDSVFLFPPKPKDTLMISRTPEVTCVVVDVSHEDGEVKFNWYVDGVEVHNAKTKPREEQYNSTYRVVSVLTVLHQDWLNGKEYKCKVSNAALPRPIEKTISKAKGQPREPQVYTLPPSRDELTKNQVSLTCLVKGFYPSDIAVEWESNGQPENNYKTTPPVLDSDGSFFLYSKLTVDKSRWQQGNVFSCSVMHEALHNHYTQESLSLSP
light: not shown

Kd [5]: 40000 nM
B8: IL6R-BP480/IL6R-L (antibody, human IgG1, kappa)
heavy: QVQLQESGPGLVKPSETLSLTCAVSGHSISHDHAWSWVRQPPGEGLEWIGFISYSGITNYNPSLQGRVTISRDNSKNTLYLQMNSLRAEDTAVYYCARSLARTTAMDYWGEGTLVTVSSASTKGPSVFPLAPSSKSTSGGTAALGCLVKDYFPEPVTVSWNSGALTSGVHTFPAVLQSSGLYSLSSVVTVPSSSLGTQTYICNVNHKPSNTKVDKKVEPKSCDKTHTCPPCPAPDLLGDDSVFLFPPKPKDTLMISRTPEVTCVVVDLSEDDGEVKFNWYVDGVEVHNAKTKPREEQYNSTYRVVSVLTVLHQDWLNGKEYKCKVSNKALPAPIEKTISKAKGQPREPQVYTLPPSRDELTKNQVSLTCLVKGFYPSDIAVEWESNGQPENNYKTTPPVLDSDGSFFLYSKLTVDKSRWQQGNVFSCSVMHEALHNHYTQESLSLSP
light: not shown

Kd [8]: 40 nM
KD (IIaR)/KD (IIb) [3]: 33.3
B9: IL6R-BP487/IL6R-L (antibody, human IgG1, kappa)
heavy: QVQLQESGPGLVKPSETLSLTCAVSGHSISHDHAWSWVRQPPGEGLEWIGFISYSGITNYNPSLQGRVTISRDNSKNTLYLQMNSLRAEDTAVYYCARSLARTTAMDYWGEGTLVTVSSASTKGPSVFPLAPSSKSTSGGTAALGCLVKDYFPEPVTVSWNSGALTSGVHTFPAVLQSSGLYSLSSVVTVPSSSLGTQTYICNVNHKPSNTKVDKKVEPKSCDKTHTCPPCPAPDLLGDDSVFLFPPKPKDTLMISRTPEVTCVVIDVAEEDGEVKFNWYVDGVEVHNAKTKPREEQYNSTYRVVSVLTVLHQDWLNGKEYKCKVSNKALPRPIEKTISKAKGQPREPQVYTLPPSRDELTKNQVSLTCLVKGFYPSDIAVEWESNGQPENNYKTTPMVLDSDGSFFLYSKLTVDKSRWQQGNVFSCSVMHEALHNHYTQESLSLSP
light: not shown

Kd [9]: 13 nM
KD (IIaH)/KD (IIb) [2]: 230
KD (IIaR)/KD (IIb) [3]: 16
B10: IL6R-BP483/IL6R-L (antibody, human IgG1, kappa)
heavy: QVQLQESGPGLVKPSETLSLTCAVSGHSISHDHAWSWVRQPPGEGLEWIGFISYSGITNYNPSLQGRVTISRDNSKNTLYLQMNSLRAEDTAVYYCARSLARTTAMDYWGEGTLVTVSSASTKGPSVFPLAPSSKSTSGGTAALGCLVKDYFPEPVTVSWNSGALTSGVHTFPAVLQSSGLYSLSSVVTVPSSSLGTQTYICNVNHKPSNTKVDKKVEPKSCDKTHTCPPCPAPDLLGDDSVFLFPPKPKDTLMISRTPEVTCVVVDLAEEDGEVKFNWYVDGVEVHNAKTKPREEQYNSTYRVVSVLTVLHQDWLNGKEYKCKVSNKALPAPIEKTISKAKGQPREPQVYTLPPSRDELTKNQVSLTCLVKGFYPSDIAVEWESNGQPENNYKTTPPVLDSDGSFFLYSKLTVDKSRWQQGNVFSCSVMHEALHNHYTQESLSLSP
light: not shown
